The values that follow come from patent US11278600B2, “Human alpha-galactosidase variants” (Codexis, Inc., priority 2014, dated 2022).

What all share (format): biochemical
The nature of data set [1]: HTP-analysis of yeast culture supernatants, no challenge (MUGal hydrolysis). The method, boiled down: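 Activity read as 4-methylumbelliferyl α-D-galactopyranoside hydrolysis: fluorescence (355/448 nm) after sodium carbonate stop, following 30-180 min at 37° C with 2 mM MUGal stock at pH 4.6–4.8. Enzyme source is unchallenged culture supernatant of INVSc1 yeast expressing GLA variants, grown 66-84 h at 30° C.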

The nature of data set [2]: HTP-analysis of supernatants pretreated with base (MUGal hydrolysis). The conditions noted are these: for Relative Activity of GLA Variants After Challenge at pH 9.7: activity of the variant/activity of Rd3BB (SEQ ID NO: 13), yeast supernatant; for Relative Activity of GLA Variants After Challenge at pH 7.5: activity of the variant/activity of Rd7BB (SEQ ID NO: 44). The method, boiled down:
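Supernatants from INVSc1 yeast expressing GLA variants (SD-Ura, 66-84 h, 30° C) were mixed with McIlvaine buffer pH 7.0-8.2 or 200 mM sodium bicarbonate pH 9.1-9.7 and held 1-18 h at 37° C. Residual activity was then measured on MUGal at pH 4.8/4.3, 37° C, 30-180 min, by fluorescence (Ex 355/Em 448 nm).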

Data set [3] in a line: HTP-analysis of supernatants pretreated with acid (MUGal hydrolysis). The conditions noted are these: for Relative Activity of GLA Variants After Challenge at pH 3.3: activity of the variant/activity of Rd3BB (SEQ ID NO: 13), yeast supernatant; for Relative Activity of GLA Variants After Challenge at pH 3.5: activity of the variant/activity of Rd7BB (SEQ ID NO: 44). The method, boiled down: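 Fluorescence of MUGal hydrolysis (Ex. 355 nm, Em. 448 nm) is read after sodium carbonate quench. The enzyme source is INVSc1 yeast culture supernatant, first exposed to pH 3.3-4.3 McIlvaine buffer at 37° C. for 1-3 h, then reacted at pH 4.8 for 30-180 minutes.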

Setting [4] is: activity of the variant/activity of Rd3BB (SEQ ID NO: 13), yeast supernatant.
Setting [5] is: activity of the variant/activity of Rd7BB (SEQ ID NO: 44).

Positions count from the first letter of the chain named.

B1: 630 (protein)
chain: LDNGLARTPTMGWLHWERFMCNLDCQEEPDSCISEKLFMEMAERMVTEGWKDAGYEYLCIDDCWMAPQRDSEGRLQADPQRFPHGIRQLANHVHSKGLKLGIYADVGNKTCAGFPGSFGYYDIDAQTFADWGVDLLKFDGCYCDSLENLADGYKHMSLALNRTGRPIVYSCEWPLYMWPFQKPNYTEIRQYCNHWRNFADIDDSWASIKSILDWTSRNQERIVDVAGPGGWNDPDMLVIGNFGLSWDQQVTQMALWAIWAAPLFMSNDLRAISPQAKALLQDKDVIAINQDPLGKQGYQLRKGDNFEVWERPLSGDAWAVAIINRQEIGGPRSYTIPVASLGKGVACNPACFITQLLPVKRQLGFYNWTSRLKSHINPTGTVLLQLENTHQMSLKDLL
modifications: Synthetic Polypeptide sequence of Variant No. 630 of mature Human GLA
Take B1: in data set [1] (setting [4]), the “Relative Activity of GLA Variants After No Challenge (NC)” value is on record as “+ (+ = 1.5 to 5 relative activity over Rd3BB (SEQ ID NO: 13))”. Further, the “Relative Activity of GLA Variants After Challenge at pH 9.7” value (“Relative Activity … at pH 9.7” for short) in data set [2] is listed as “++ (++ = >5 to 10 relative activity over Rd3BB (SEQ ID NO: 13))”. In addition, the “Relative Activity of GLA Variants After Challenge at pH 3.3” value (from here on “Relative Activity … at pH 3.3”) in data set [3] is reported as “− (− = <1.5 relative activity to Rd3BB (SEQ ID NO: 13))”.

B2: 662 (protein)
chain: B1 chain with V238I, W259M, H390M, M392T
modifications: Synthetic Polypeptide sequence of Variant No. 662 of mature Human GLA
As to B2, the “Relative Activity of GLA Variants After No Challenge (NC)” value in data set [1] (setting [5]) is “+ (>0.5 to 1.5 relative activity over Rd7BB (SEQ ID NO: 44))”. Besides, the “Relative Activity of GLA Variants After Challenge at pH 7.5” value (from here on “Relative Activity … at pH 7.5”) in data set [2] is “+ (>0.5 to 1.5 relative activity over Rd7BB (SEQ ID NO: 44))”. Further, the “Relative Activity of GLA Variants After Challenge at pH 3.5” value (from here on “Relative Activity … at pH 3.5”) in data set [3] was “+ (>0.5 to 1.5 relative activity over Rd7BB (SEQ ID NO: 44))”.

B3: 632 (protein)
chain: B1 chain with T47N, W259M, H390M, M392T
modifications: Synthetic Polypeptide sequence of Variant No. 632 of mature Human GLA
As for B3, the “Relative Activity of GLA Variants After No Challenge (NC)” value in data set [1] (setting [4]) is reported as “+ (+ = 1.5 to 5 relative activity over Rd3BB (SEQ ID NO: 13))”. Also, the “Relative Activity … at pH 9.7” value in data set [2] is given as “++ (++ = >5 to 10 relative activity over Rd3BB (SEQ ID NO: 13))”. In addition, the “Relative Activity … at pH 3.3” value in data set [3] was “++ (++ = >5 to 10 relative activity over Rd3BB (SEQ ID NO: 13))”.

B4: 660 (protein)
chain: B1 chain with M39E, W259M, A261G, N305L, H390M, M392T
modifications: Synthetic Polypeptide sequence of Variant No. 660 of mature Human GLA
On to B4, for which the “Relative Activity of GLA Variants After No Challenge (NC)” value in data set [1] (setting [5]) was “+ (>0.5 to 1.5 relative activity over Rd7BB (SEQ ID NO: 44))”. The “Relative Activity … at pH 7.5” value in data set [2] is reported as “− (<0.5 relative activity to Rd7BB (SEQ ID NO: 44))”. For the same molecule, the “Relative Activity … at pH 3.5” value in data set [3] was “+ (>0.5 to 1.5 relative activity over Rd7BB (SEQ ID NO: 44))”.

B5: 661 (protein)
chain: B1 chain with W195C, W259M, H390M, M392T
modifications: Synthetic Polypeptide sequence of Variant No. 661 of mature Human GLA
As to B5, in data set [1] (setting [5]), the “Relative Activity of GLA Variants After No Challenge (NC)” value is on record as “− (<0.5 relative activity to Rd7BB (SEQ ID NO: 44))”. Besides, in data set [2], the “Relative Activity … at pH 7.5” value is recorded as “− (<0.5 relative activity to Rd7BB (SEQ ID NO: 44))”. In addition, the “Relative Activity … at pH 3.5” value in data set [3] is on record as “− (<0.5 relative activity to Rd7BB (SEQ ID NO: 44))”.

B6: 631 (protein)
chain: B1 chain with W259M, H390Q
modifications: Synthetic Polypeptide sequence of Variant No. 631 of mature Human GLA
Regarding B6, the “Relative Activity of GLA Variants After No Challenge (NC)” value in data set [1] (setting [4]) is reported as “+ (+ = 1.5 to 5 relative activity over Rd3BB (SEQ ID NO: 13))”. Further, the “Relative Activity … at pH 9.7” value in data set [2] is “++ (++ = >5 to 10 relative activity over Rd3BB (SEQ ID NO: 13))”. The “Relative Activity … at pH 3.3” value in data set [3] is “+ (+ = 1.5 to 5 relative activity over Rd3BB (SEQ ID NO: 13))”.
